Assay results from the nanobody polyreactivity screen of Harvey et al. (2022).

Experiment: yeast display, Sf9 membrane polyspecificity reagent, FACS + sequencing; frameworks hold sequencing errors
Summary of the method: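 Genes from sorted yeast were amplified by colony PCR, read by MiSeq 2 × 250 sequencing and filtered on CDR length. These cells carried a synthetic nanobody library in Saccharomyces cerevisiae BJ5465 and were sorted by FACS into low and high (top ~1%) gates on anti-HA and streptavidin fluorescence. Polyreactivity is labelled according to the gate of origin.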

| Sequence | polyreactivity (PSR sort gate) |
| --- | --- |
| QVQLVESGGGLVQAGGSLRLSCAASGRTFYGNAMGWYRQAPGKERELVAAITSGGGSTRYADSVKGRFTISRDNANNTVYLQMNSLKPEHTAVYYCAAYRQGTAYDYWGQGTQVTVSS | high polyreactivity |
| QVQLVESGGGLVQAGGSLRLSCAASGRTFYGYAMGWYRQAPGKERELVAAISKSGGRTYYADSVKGRFTISRDNAKNTVYLQMNSLKPEDSAVYYCNAPVTGAGTYPPYDSWGQGTQVTVSS | high polyreactivity |
| QVQLVESGGGLVQAGGSLRLSCAASGRTFYGYAMGWYRQAPGKERELVAAITQRSGSTYYADSVKGRFTISRDNAKNTVYLQMNSLKPEDTAVYYYNADKSQRVRRGDYWGQGTQVTVSS | high polyreactivity |
| QVQLVESGGGLVQAGGSLRLSCAASGRTFYGYAMGWYRQAPGKERELVAGITSRVGSTYYADSVKGRFTISRDNAKNNVYLQMNSLKPEDTAVYYCAADRYAVRSYHYDYWGQGTQVTVSS | low polyreactivity |
| QVQLVESGGGLVQAGGSLRLSCAASGRTFYGYAMGWYRQAPGKERELVATITRRGGSTYYADSVKGRFTISRDNAKNTVYLQMNSLKPEDTAVYYCARQGDQYYRDGDDYWGQGTQVTVSS | high polyreactivity |
| QVQLVESGGGLVQAGGSLRLSCAASGRTFYGYAMGWYRQAPGKERELVAVITSGVRTNYADSVKGRFTISRDNAKNTVYLQMNSLKPEDTAVYYCAARGTLALRDHYGYWGQGTQVNVSS | high polyreactivity |
| QVQLVESGGGLVQAGGSLRLSCAASGRTFYGYGMGWYRQAPGKERELVAGISVRGGSTYYADSVKGRFTISRDNAKNTVYLQMNSLKPEDTAVYYCAALGWRPTYYYWGHGTQVTVSS | high polyreactivity |
| QVQLVESGGGLVQAGGSLRLSCAASGRTFYHYAMGWYRQAPGKERELFAAISWTGGSTSSTYYADSVKGRFTISRDNAKNTVYLQMNSLKPEDTAVYYCAADFWWGHTWQDDYWGQGTQVTVSS | low polyreactivity |
| QVQLVESGGGLVQAGGSLRLSCAASGRTFYHYAMGWYRQAPGKERELVAAITGSGGSTSYADSVKGRFTISRDNAKNTVYLQMNTLKPEDTAVYYCAAVQFPTPLLLYDSWGQGTQVTVSS | low polyreactivity |
| QVQLVESGGGLVQAGGSLRLSCAASGRTFYHYVMGWYRQEPGKERELVAAITSRGGSTYYADSVKGRFTISRDNAKNTVYLQMNSLKPEDTAVYYCAARLNYGNKYDYWGQGTQVTVSS | high polyreactivity |
| QVQLVESGGGLVQAGGSLRLSCAASGRTFYIYAMGGNRQATGKERELVAAITWRGGRTYYADSVKGRFTISRDNAKNTFYLQMNSLKPEDTAVYYCGARTGQGPMYKHWGQGTQVTLSS | high polyreactivity |
| QVQLVESGGGLVQAGGSLRLSCAASGRTFYIYAMGWYRPAPGKERELVAAITSGRSTSYADSVKGRFTISRDNAKNTVYLQMNSLKPEDTAVYYCAADQYTYWFGYDYWGQGTQVTVSS | low polyreactivity |
| QVQLVESGGGLVQAGGSLRLSCAASGRTFYIYAMGWYRQAPAKERELVAAITWSRGSSTYYADSVKGRFTISRDNAKNTVYLQMNSLKPEDTAVYYCAAETHYYWYEQYDYCGQGTQVTVSS | high polyreactivity |
| QVQLVESGGGLVQAGGSLRLSCAASGRTFYIYAMGWYRQAPGKERELVAAISWGSGSTYYADSVKGRFTISRDNAKNTVYLQMNSLKPEDTAVYYCAAEYAYPSEWTYDYWGQGTQVTVSS | low polyreactivity |
| QVQLVESGGGLVQAGGSLRLSCAASGRTFYIYAMGWYRQAPGTERELVAAITYGGGRTFYADSVKGRFTISRDKAKNTVYLQMNSLKPEDTAVYYCAADGRTLGRRYYYWGLGTQVTVSS | high polyreactivity |
| QVQLVESGGGLVQAGGSLRLSCAASGRTFYIYVMGWDRQAPGKERELVAGITVRGGITNYADSVKGGFTSSRDNAKNTVYLQMNSLKPEDTAVYYCAVDDLGSEYDYWGQGTQVTVSS | low polyreactivity |
| QVQLVESGGGLVQAGGSLRLSCAASGRTFYKNAMGWYRQAPGKEREFVASISVSGGRTYYADSVKGRFTISRDNAKNTVYLQMNSLKPEDTAVYYCNARASPLSQRDYWGQGTQVTVSS | low polyreactivity |
